Data: patent publication US20180369322A1 (published 2018)
Numbered stars: 1 amine (or outer) side, 2 acyl side, 3 side chain; on linkers, the order of the positions; unused ones are H or OH. Bridge positions count the residues as written; N and C are the ends. Square brackets hold non-standard residues; d marks the D form. Primed or numbered codes have the meaning given here. Side chains are listed from the residue outwards. * marks the point of attachment. PEG24′ = polyethylene glycol unit with 24 repeats; Trp(7-aza) = N[C@@H](Cc1c[nH]c2ncccc12)C(=O)O; γGlu = O=C(O)[C@H](CCC(=O)[*:2])N[*:1]; Palmitoyl = CCCCCCCCCCCCCCCC(=O)*; NMeD = CN[C@@H](CC(=O)O)C(=O)O; Chg = N[C@H](C(=O)O)C1CCCCC1; Tle = CC(C)(C)[C@H](N)C(=O)O

How the values were obtained:
Test in all cases: cell-based or functional assay
[1] = target: cloned hERG potassium channel (human, UniProt Q12809 1-1159)
Chain of cloned hERG potassium channel (Q12809 whole entry): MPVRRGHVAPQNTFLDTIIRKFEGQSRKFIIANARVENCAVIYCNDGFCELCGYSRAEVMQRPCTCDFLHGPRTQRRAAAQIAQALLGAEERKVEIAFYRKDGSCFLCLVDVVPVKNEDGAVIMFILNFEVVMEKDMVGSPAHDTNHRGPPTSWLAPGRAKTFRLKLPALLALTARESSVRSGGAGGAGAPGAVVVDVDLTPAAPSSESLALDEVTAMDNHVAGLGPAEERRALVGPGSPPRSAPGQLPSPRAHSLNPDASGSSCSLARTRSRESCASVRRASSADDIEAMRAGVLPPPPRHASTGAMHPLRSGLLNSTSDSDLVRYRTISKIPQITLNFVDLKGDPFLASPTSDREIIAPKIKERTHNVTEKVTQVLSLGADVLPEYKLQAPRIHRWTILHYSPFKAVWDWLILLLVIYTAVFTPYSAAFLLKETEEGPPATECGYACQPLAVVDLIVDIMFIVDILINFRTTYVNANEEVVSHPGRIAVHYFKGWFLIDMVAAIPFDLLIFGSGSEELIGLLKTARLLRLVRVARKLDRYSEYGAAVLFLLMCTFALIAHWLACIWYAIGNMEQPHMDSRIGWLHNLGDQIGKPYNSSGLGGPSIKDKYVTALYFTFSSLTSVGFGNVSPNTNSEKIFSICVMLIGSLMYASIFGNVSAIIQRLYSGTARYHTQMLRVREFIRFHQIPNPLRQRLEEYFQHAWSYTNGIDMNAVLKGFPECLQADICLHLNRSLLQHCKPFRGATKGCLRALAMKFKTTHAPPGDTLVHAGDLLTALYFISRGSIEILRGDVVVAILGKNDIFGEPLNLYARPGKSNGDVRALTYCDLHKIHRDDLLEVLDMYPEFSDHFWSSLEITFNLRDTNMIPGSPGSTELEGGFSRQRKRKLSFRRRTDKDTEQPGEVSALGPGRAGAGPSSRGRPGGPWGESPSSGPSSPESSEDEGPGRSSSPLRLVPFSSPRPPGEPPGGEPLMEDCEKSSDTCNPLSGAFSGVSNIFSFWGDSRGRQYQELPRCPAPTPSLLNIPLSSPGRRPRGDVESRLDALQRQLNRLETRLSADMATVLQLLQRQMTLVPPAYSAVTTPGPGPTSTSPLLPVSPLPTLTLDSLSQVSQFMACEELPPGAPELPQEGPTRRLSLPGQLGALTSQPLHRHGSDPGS

human C5 = human C5 (human, UniProt P01031 19-1676)
Chain of human C5 (P01031 19-1676 limits assumed): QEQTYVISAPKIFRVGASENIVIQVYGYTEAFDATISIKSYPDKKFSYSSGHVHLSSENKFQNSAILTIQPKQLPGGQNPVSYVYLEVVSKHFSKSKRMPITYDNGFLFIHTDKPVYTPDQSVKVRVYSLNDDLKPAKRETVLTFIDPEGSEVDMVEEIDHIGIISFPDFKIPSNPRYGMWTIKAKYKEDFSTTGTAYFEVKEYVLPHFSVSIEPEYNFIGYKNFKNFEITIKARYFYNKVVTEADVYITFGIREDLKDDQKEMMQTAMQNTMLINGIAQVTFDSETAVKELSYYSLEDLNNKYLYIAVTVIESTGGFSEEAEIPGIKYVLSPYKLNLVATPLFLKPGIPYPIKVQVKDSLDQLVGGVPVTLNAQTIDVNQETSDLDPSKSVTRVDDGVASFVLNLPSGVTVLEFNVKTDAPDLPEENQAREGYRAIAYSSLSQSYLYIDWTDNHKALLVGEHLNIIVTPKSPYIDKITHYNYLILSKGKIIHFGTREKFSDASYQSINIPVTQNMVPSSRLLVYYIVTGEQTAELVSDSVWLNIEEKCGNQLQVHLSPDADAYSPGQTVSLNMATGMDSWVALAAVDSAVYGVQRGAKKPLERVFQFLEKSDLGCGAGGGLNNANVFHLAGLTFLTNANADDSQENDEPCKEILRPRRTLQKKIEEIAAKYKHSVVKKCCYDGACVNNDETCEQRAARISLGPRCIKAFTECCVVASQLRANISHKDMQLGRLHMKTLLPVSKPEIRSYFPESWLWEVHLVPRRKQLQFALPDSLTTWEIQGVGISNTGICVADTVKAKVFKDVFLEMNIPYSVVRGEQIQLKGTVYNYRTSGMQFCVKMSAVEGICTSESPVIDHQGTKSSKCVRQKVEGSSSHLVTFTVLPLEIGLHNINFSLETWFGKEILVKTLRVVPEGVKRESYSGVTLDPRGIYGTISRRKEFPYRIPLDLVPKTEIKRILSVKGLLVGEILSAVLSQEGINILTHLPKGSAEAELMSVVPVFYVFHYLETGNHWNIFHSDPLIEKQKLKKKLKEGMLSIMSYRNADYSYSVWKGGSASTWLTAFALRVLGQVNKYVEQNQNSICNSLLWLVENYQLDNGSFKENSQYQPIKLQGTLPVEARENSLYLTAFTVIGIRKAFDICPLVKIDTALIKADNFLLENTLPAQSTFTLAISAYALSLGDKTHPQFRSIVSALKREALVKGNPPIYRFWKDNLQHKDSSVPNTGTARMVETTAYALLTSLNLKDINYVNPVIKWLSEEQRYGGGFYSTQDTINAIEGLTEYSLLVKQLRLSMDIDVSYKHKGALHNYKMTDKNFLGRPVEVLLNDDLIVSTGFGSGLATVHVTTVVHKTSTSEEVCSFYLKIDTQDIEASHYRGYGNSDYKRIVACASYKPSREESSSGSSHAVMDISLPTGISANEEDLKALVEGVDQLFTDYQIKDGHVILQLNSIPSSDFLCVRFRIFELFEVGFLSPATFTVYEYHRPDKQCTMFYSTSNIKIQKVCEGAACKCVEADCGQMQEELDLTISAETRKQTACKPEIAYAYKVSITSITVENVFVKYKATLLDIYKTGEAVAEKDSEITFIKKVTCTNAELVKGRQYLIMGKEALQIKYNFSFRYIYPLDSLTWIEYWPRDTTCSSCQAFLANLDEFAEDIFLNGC

dog C5 = dog C5 (dog)
Chain of dog C5 (dog) (P01031 whole entry): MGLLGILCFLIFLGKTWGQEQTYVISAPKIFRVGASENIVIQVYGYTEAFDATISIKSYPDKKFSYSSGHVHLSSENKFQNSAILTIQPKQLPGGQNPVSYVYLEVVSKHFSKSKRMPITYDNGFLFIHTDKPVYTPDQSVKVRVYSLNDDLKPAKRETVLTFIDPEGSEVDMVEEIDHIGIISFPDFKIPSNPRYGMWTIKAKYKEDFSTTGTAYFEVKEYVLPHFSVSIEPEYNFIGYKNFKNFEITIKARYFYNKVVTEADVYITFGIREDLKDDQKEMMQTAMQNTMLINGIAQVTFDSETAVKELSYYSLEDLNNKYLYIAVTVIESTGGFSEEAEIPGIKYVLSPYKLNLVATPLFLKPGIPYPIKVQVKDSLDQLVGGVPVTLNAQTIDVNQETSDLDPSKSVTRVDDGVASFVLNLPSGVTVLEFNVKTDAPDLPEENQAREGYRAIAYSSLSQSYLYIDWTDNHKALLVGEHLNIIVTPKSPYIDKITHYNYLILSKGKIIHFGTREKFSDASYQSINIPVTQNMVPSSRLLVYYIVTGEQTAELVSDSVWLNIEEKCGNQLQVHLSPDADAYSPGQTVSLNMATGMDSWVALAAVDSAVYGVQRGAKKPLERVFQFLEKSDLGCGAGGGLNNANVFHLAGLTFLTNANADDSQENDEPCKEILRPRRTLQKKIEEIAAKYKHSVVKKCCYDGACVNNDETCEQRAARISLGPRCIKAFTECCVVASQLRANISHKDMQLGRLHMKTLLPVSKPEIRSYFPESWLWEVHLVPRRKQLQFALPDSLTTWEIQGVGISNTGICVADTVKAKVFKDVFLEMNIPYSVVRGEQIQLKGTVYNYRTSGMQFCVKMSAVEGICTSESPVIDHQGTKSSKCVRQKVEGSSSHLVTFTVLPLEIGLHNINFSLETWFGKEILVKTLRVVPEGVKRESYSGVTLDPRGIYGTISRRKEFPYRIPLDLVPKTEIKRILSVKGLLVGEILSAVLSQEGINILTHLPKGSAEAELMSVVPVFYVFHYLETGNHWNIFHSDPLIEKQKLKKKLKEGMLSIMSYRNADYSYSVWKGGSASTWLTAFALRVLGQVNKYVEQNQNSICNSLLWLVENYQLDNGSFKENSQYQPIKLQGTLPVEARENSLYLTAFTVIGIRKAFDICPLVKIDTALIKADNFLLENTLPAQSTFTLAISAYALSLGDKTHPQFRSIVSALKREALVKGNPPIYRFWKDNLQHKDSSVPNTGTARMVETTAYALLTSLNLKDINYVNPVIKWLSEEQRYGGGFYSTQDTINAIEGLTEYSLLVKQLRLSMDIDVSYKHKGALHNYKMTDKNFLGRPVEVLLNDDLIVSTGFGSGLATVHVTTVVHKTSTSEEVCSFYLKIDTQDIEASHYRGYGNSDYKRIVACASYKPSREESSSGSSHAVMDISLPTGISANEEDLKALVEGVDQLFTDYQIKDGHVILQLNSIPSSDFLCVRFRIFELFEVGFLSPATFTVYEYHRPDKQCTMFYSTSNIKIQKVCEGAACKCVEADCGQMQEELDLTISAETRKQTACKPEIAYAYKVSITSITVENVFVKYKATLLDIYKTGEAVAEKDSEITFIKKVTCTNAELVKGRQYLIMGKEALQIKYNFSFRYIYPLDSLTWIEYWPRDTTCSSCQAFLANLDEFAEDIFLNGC

rabbit C5 = rabbit C5 (rabbit)
Chain of rabbit C5 (rabbit) (P01031 whole entry): as above

Ac-KVERFD[NMeD][Tle]Y[Trp(7-aza)]EYP[Chg]K([PEG24′-γGlu-Palmitoyl])-OH (lactam 1-6) [R5000]
IC50 of inhibition of hERG potassium channel current (parallel patch-clamp, HEK293 cells) [1]: > 300 µM | IC50 of inhibition of red blood cell hemolysis, human serum/plasma (human C5): 0.0066 µM | IC50 of inhibition of red blood cell hemolysis, dog serum/plasma (dog C5): > 4.7 µM | IC50 of inhibition of red blood cell hemolysis, rabbit serum/plasma (rabbit C5): > 67 µM
